The results in this text go back to the supplement of paper PMC9233669.

The test system of one series is biotinyl-Trp-oxazolone. The series can be described thus: self-aminoacylation, catalytic enhancement (BWO) (fold over background); higher = more active; k-Seq, kA / k0A0; sequences stand for … in GGGAAUGGAUCCACAUCUACGAAUUC…UUCACUGCAGACUUGACGAAGCUG
The method in brief:
(§1)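 Mutagenized RNA pools with a 21-nt variable region (0.43 μM) were reacted with each biotinyl-aminoacyl-oxazolone at 2–1250 μM for 90 minutes at room temperature, in 50 μL HEPES/NaCl/KCl/MgCl2/CaCl2 buffer containing 5% acetonitrile at pH 6.9–7.0. RNA captured on streptavidin was quantified by triplicate qPCR and by Illumina sequencing. The fraction reacted for each sequence was fit to a pseudo-first-order model with bootstrapping, and catalytic enhancement is the median kA divided by the uncatalyzed rate, taken as the low-activity peak of a bimodal Gaussian fit.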

The next series concerns biotinyl-Phe-oxazolone. The series can be described thus: self-aminoacylation, catalytic enhancement (BFO) (fold over background); higher = more active; k-Seq, kA / k0A0; sequences stand for … in GGGAAUGGAUCCACAUCUACGAAUUC…UUCACUGCAGACUUGACGAAGCUG
The method in brief: as §1

This sample holds only a part of the variants without activity.

As to “AAACUUCAAACAAUCGGUCUG [Fam1A.1 aminoacylation ribozyme variant]”, the self-aminoacylation in the series with biotinyl-Trp-oxazolone is 18.7; in the series on biotinyl-Phe-oxazolone, 30.9.

Turning to “AAGAUUGCUAAUAGCCGCAAG [Fam3.1 aminoacylation ribozyme variant]”, in the series on biotinyl-Trp-oxazolone, the self-aminoacylation was 2.47.

Regarding “AAGCUUGAUAAUAGUCGCAAG [Fam3.1 aminoacylation ribozyme variant]”, the figures for the self-aminoacylation with biotinyl-Trp-oxazolone and in the series with biotinyl-Phe-oxazolone were 2.02 and 2.72, respectively.

Regarding “AAGGUUGCUAAUAGUCGCAGG [Fam3.1 aminoacylation ribozyme variant]”, the figures for the self-aminoacylation with biotinyl-Trp-oxazolone and in the series on biotinyl-Phe-oxazolone were 2.28 and 3.23, respectively.

As to “AAGUAUGCUAAUAGUCGCAAG [Fam3.1 aminoacylation ribozyme variant]”, the self-aminoacylation with biotinyl-Trp-oxazolone is 6.46; with biotinyl-Phe-oxazolone, 22.9.

On to “AAGUAUGCUAAUAGUCGCACG [Fam3.1 aminoacylation ribozyme variant]”, for which the self-aminoacylation with biotinyl-Trp-oxazolone came out at 2.03.

Turning to “AAGUUAGCUAAUAGUCGUAAG [Fam3.1 aminoacylation ribozyme variant]”, the self-aminoacylation came to 3.54 in the series on biotinyl-Trp-oxazolone and 14 in the series on biotinyl-Phe-oxazolone.

For the sequence “AAGUUCUCUAAUAGUCGCAAG [Fam3.1 aminoacylation ribozyme variant]”, the self-aminoacylation with biotinyl-Trp-oxazolone was determined as 2.07; in the series on biotinyl-Phe-oxazolone, 3.34.

Consider “AAGUUGGCUAAUAGUCUCAAG [Fam3.1 aminoacylation ribozyme variant]”, for which the self-aminoacylation in the series with biotinyl-Trp-oxazolone amounted to 2.27.

Take “AAGUUUGCCAAUUGUCGCAAG [Fam3.1 aminoacylation ribozyme variant]”: the self-aminoacylation was 2.15 in the series with biotinyl-Trp-oxazolone and 2.77 with biotinyl-Phe-oxazolone.

In the case of “AAGUUUGCGAAUAUUCGCAAG [Fam3.1 aminoacylation ribozyme variant]”, in the series on biotinyl-Trp-oxazolone, the self-aminoacylation worked out at 2.71.

For “AAGUUUGCUAGUAGUCGCAAA [Fam3.1 aminoacylation ribozyme variant]”, the self-aminoacylation in the series with biotinyl-Trp-oxazolone is 2.13.

“AAUCACCUAGGUCAUAGGGUG [Fam2.2 aminoacylation ribozyme variant]”: in the series on biotinyl-Trp-oxazolone, the self-aminoacylation was found to be 2.15.

For the sequence “AAUCACCUAGGUCAUCAGGUG [Fam2.2 aminoacylation ribozyme variant]”, in the series with biotinyl-Trp-oxazolone, the self-aminoacylation was 2.18.

As for “ACAAACUUCAAGCAAUCGGUC [Fam1B.1 aminoacylation ribozyme variant]”, the self-aminoacylation with biotinyl-Trp-oxazolone was 9.7; in the series on biotinyl-Phe-oxazolone it was 15.

In the case of “ACACACUUCAAGCAAUCGGUC [Fam1B.1 aminoacylation ribozyme variant]”, the self-aminoacylation was found to be 13.1 with biotinyl-Trp-oxazolone and 27.1 with biotinyl-Phe-oxazolone.

As for “ACGUUUGCUAAUAGUCGCAAG [Fam3.1 aminoacylation ribozyme variant]”, the self-aminoacylation with biotinyl-Trp-oxazolone turned out to be 3.66; in the series with biotinyl-Phe-oxazolone it was 9.06.

For the sequence “AGGUGUGCUAAUAGUCGCAAG [Fam3.1 aminoacylation ribozyme variant]”, the values for the self-aminoacylation with biotinyl-Trp-oxazolone and in the series on biotinyl-Phe-oxazolone were 2.52 and 5.87, respectively.

As to “AUACAUCAAACAAUCGGUCUG [Fam1A.1 aminoacylation ribozyme variant]”, the self-aminoacylation with biotinyl-Trp-oxazolone is 2.68; with biotinyl-Phe-oxazolone it was 4.05.

Regarding “AUACUUCAAACAAUCGGUCUG [Fam1A.1 aminoacylation ribozyme variant]”, the self-aminoacylation in the series with biotinyl-Trp-oxazolone stood at 9.11; with biotinyl-Phe-oxazolone it was 14.7.

Regarding “AUGUUUGCUAAUAGUCGCAAG [Fam3.1 aminoacylation ribozyme variant]”, the self-aminoacylation was determined as 4.22 in the series on biotinyl-Trp-oxazolone and 12.9 with biotinyl-Phe-oxazolone.

In the case of “AUUACGCUGGUCAUCGAGCGA [Fam2.1 aminoacylation ribozyme variant]”, in the series on biotinyl-Trp-oxazolone, the self-aminoacylation was found to be 2.16.

As for “AUUCACCUAGGUUAUCAGGUG [Fam2.2 aminoacylation ribozyme variant]”, the self-aminoacylation in the series on biotinyl-Trp-oxazolone is 2.12.

Turning to “AUUCACCUCGGUCAUCAGGUG [Fam2.2 aminoacylation ribozyme variant]”, the self-aminoacylation in the series on biotinyl-Trp-oxazolone was 2.02; with biotinyl-Phe-oxazolone it was 4.3.

Turning to “AUUGACCUAGGUCAUCGGGAG [Fam2.2 aminoacylation ribozyme variant]”, the self-aminoacylation with biotinyl-Trp-oxazolone came out at 2.04; in the series with biotinyl-Phe-oxazolone it was 3.29.

For “CAAAUUCAAACAAUCGGUCUG [Fam1A.1 aminoacylation ribozyme variant]”, the self-aminoacylation with biotinyl-Trp-oxazolone came to 3.94; with biotinyl-Phe-oxazolone, 6.39.

Consider “CAACAUCAAACAAUCGGUCUG [Fam1A.1 aminoacylation ribozyme variant]”, for which the figures for the self-aminoacylation in the series on biotinyl-Trp-oxazolone and in the series on biotinyl-Phe-oxazolone were 3.73 and 7.46, respectively.

On to “CAACCCUUCAAGCAAUCGGUC [Fam1B.1 aminoacylation ribozyme variant]”, for which the self-aminoacylation with biotinyl-Trp-oxazolone amounted to 2.72; with biotinyl-Phe-oxazolone it was 2.9.

Take “CAACUUCAAACAAUCGGUCCG [Fam1A.1 aminoacylation ribozyme variant]”: the self-aminoacylation came out at 4.86 with biotinyl-Trp-oxazolone and 5.44 in the series with biotinyl-Phe-oxazolone.

Consider “CAACUUCAAACAAUCGGUCUC [Fam1A.1 aminoacylation ribozyme variant]”, for which the self-aminoacylation with biotinyl-Trp-oxazolone turned out to be 37.7; in the series on biotinyl-Phe-oxazolone it was 75.3.

As for “CCAAACUUCAACCAAUCGGUC [Fam1B.1 aminoacylation ribozyme variant]”, the values for the self-aminoacylation with biotinyl-Trp-oxazolone and with biotinyl-Phe-oxazolone were 27.5 and 43.8, respectively.

Take “CCAAACUUCAAGCAAUCGGUU [Fam1B.1 aminoacylation ribozyme variant]”: the values for the self-aminoacylation in the series on biotinyl-Trp-oxazolone and in the series on biotinyl-Phe-oxazolone were 4.36 and 5.01, respectively.

Regarding “CCACAAUUCAACCAAUCGGUC [Fam1B.1 aminoacylation ribozyme variant]”, the results for the self-aminoacylation with biotinyl-Trp-oxazolone and with biotinyl-Phe-oxazolone were 5.9 and 6.75, respectively.

On to “CCACACUUCAAAUAAUCGGUC [Fam1B.1 aminoacylation ribozyme variant]”, for which the self-aminoacylation with biotinyl-Trp-oxazolone came out at 13.7; with biotinyl-Phe-oxazolone, 23.8.

Regarding “CCACACUUCAAUCGAUCGGUC [Fam1B.1 aminoacylation ribozyme variant]”, the self-aminoacylation came to 2.43 in the series on biotinyl-Trp-oxazolone and 2.48 in the series on biotinyl-Phe-oxazolone.

With “CCACACUUCAAUGAAUCGGUC [Fam1B.1 aminoacylation ribozyme variant]”, the figures for the self-aminoacylation in the series on biotinyl-Trp-oxazolone and with biotinyl-Phe-oxazolone were 10.3 and 14.4, respectively.

With “CCACUUCAAACAAUCAGUCUG [Fam1A.1 aminoacylation ribozyme variant]”, the self-aminoacylation in the series on biotinyl-Trp-oxazolone is 10.1; in the series with biotinyl-Phe-oxazolone it was 29.2.

With “CCAGACUUCAAGUAAUCGGUC [Fam1B.1 aminoacylation ribozyme variant]”, the figures for the self-aminoacylation with biotinyl-Trp-oxazolone and with biotinyl-Phe-oxazolone were 8.35 and 11.5, respectively.

Consider “CCAUACUUCAACCAAUCGGUC [Fam1B.1 aminoacylation ribozyme variant]”, for which the self-aminoacylation worked out at 17.2 in the series on biotinyl-Trp-oxazolone and 32.7 with biotinyl-Phe-oxazolone.

For “CCAUACUUCAAUCAAUCGGUC [Fam1B.1 aminoacylation ribozyme variant]”, the figures for the self-aminoacylation with biotinyl-Trp-oxazolone and with biotinyl-Phe-oxazolone were 15.9 and 31.2, respectively.

With “CCCCAAUUCAAGCAAUCGGUC [Fam1B.1 aminoacylation ribozyme variant]”, the self-aminoacylation amounted to 7.09 with biotinyl-Trp-oxazolone and 7.89 with biotinyl-Phe-oxazolone.

Regarding “CCGCACUUCAAGAAAUCGGUC [Fam1B.1 aminoacylation ribozyme variant]”, the self-aminoacylation in the series on biotinyl-Trp-oxazolone amounted to 10.3; in the series with biotinyl-Phe-oxazolone, 12.2.

For “CCUCACUUCAAGAAAUCGGUC [Fam1B.1 aminoacylation ribozyme variant]”, the self-aminoacylation in the series on biotinyl-Trp-oxazolone is 7.71; with biotinyl-Phe-oxazolone, 11.

On to “CCUCACUUCAAUCAAUCGGUC [Fam1B.1 aminoacylation ribozyme variant]”, for which the self-aminoacylation stood at 17.9 in the series on biotinyl-Trp-oxazolone and 39.5 with biotinyl-Phe-oxazolone.

In the case of “CGACUCCAAACAAUCGGUCUG [Fam1A.1 aminoacylation ribozyme variant]”, the self-aminoacylation amounted to 3.11 with biotinyl-Trp-oxazolone and 3.55 in the series with biotinyl-Phe-oxazolone.

For the sequence “CGACUUCAAACAACCGGUCUG [Fam1A.1 aminoacylation ribozyme variant]”, the self-aminoacylation with biotinyl-Trp-oxazolone is 2.13.

Consider “CGAGUUCAAACAAUCGGUCUG [Fam1A.1 aminoacylation ribozyme variant]”, for which the self-aminoacylation in the series on biotinyl-Trp-oxazolone amounted to 4.57; with biotinyl-Phe-oxazolone, 6.84.

Regarding “CGGCACUUCAAGCAAUCGGUC [Fam1B.1 aminoacylation ribozyme variant]”, the values for the self-aminoacylation in the series with biotinyl-Trp-oxazolone and in the series on biotinyl-Phe-oxazolone were 20.1 and 34.7, respectively.

For the sequence “CUAAUUCAAACAAUCGGCCUG [Fam1A.1 aminoacylation ribozyme variant]”, the self-aminoacylation was 3.89 in the series with biotinyl-Trp-oxazolone and 5.4 in the series on biotinyl-Phe-oxazolone.

As to “CUAAUUCAAACAAUCGGUCUC [Fam1A.1 aminoacylation ribozyme variant]”, the self-aminoacylation with biotinyl-Trp-oxazolone stood at 2.9; with biotinyl-Phe-oxazolone, 6.39.

For “CUACUUCAGACAUUCGGUCUG [Fam1A.1 aminoacylation ribozyme variant]”, in the series on biotinyl-Phe-oxazolone, the self-aminoacylation turned out to be 6.22.

Take “CUACUUGAAACACUCGGUCUG [Fam1A.1 aminoacylation ribozyme variant]”: the self-aminoacylation in the series on biotinyl-Phe-oxazolone came to 3.53.

With “CUUCAUCAAACAAUCGGUCUG [Fam1A.1 aminoacylation ribozyme variant]”, in the series on biotinyl-Phe-oxazolone, the self-aminoacylation turned out to be 2.05.

“GUACUUUAAACAAUCGGUCUG [Fam1A.1 aminoacylation ribozyme variant]”: in the series on biotinyl-Trp-oxazolone, the self-aminoacylation was found to be 2.08.

For the sequence “UAGUUGGCUAAUAGUCGCAAG [Fam3.1 aminoacylation ribozyme variant]”, in the series on biotinyl-Phe-oxazolone, the self-aminoacylation amounted to 2.38.

On to “UAGUUUGCUCAUAGUCGCAAG [Fam3.1 aminoacylation ribozyme variant]”, for which, in the series on biotinyl-Phe-oxazolone, the self-aminoacylation came to 2.67.

Turning to “UUUACCCUGGUCGUCGAGUGA [Fam2.1 aminoacylation ribozyme variant]”, in the series with biotinyl-Phe-oxazolone, the self-aminoacylation turned out to be 5.7.
